# T1: variant nuclease E736G combination (P14R, D32R, I61R, E311R, E736G)
# T1 chain: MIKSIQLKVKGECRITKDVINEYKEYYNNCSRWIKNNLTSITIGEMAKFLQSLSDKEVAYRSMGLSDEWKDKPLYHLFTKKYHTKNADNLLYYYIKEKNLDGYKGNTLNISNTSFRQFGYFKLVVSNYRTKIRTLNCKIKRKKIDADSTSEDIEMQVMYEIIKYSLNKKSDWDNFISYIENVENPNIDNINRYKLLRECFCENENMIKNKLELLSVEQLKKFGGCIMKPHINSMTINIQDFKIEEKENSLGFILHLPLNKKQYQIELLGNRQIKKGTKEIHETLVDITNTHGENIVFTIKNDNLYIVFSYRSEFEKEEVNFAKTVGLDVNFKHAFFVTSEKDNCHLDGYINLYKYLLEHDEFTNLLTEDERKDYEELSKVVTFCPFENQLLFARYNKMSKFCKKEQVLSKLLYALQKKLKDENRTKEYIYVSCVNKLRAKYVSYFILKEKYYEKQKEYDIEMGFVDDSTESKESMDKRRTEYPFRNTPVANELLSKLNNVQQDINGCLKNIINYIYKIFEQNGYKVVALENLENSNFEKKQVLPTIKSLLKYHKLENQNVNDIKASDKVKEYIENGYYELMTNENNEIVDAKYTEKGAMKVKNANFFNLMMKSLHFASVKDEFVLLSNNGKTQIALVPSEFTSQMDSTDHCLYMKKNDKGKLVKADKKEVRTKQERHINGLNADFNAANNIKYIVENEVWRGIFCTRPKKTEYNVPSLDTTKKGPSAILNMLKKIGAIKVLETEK
# T2: variant nuclease T338G combination (P14R, D32R, I61R, E311R, T338G)
# T2 chain: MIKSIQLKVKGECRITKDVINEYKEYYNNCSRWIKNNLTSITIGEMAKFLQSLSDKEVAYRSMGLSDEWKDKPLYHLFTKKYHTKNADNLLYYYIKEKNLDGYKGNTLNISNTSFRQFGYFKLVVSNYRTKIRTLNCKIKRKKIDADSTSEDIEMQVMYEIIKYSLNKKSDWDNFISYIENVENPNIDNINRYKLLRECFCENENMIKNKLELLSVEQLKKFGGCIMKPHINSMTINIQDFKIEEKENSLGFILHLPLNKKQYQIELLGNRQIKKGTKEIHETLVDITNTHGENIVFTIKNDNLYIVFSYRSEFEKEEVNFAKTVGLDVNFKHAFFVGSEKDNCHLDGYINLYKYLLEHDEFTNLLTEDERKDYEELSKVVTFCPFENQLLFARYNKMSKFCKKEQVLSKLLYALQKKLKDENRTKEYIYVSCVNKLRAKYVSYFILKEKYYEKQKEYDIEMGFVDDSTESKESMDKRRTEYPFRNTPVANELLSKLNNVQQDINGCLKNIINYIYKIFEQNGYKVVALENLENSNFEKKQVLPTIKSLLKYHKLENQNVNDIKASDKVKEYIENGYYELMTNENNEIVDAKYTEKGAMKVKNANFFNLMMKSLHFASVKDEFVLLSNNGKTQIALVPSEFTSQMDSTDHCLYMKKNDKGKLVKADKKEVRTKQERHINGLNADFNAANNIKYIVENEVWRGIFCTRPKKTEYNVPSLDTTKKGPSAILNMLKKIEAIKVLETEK
# Assays:
# [1] = biological target: T1, variant nuclease E736G combination; experiment: cell_activity; PAM 5'-TTTG-3'; conditions: tags: pcDNA3.1 expression
# Procedure, shortened: (§1)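 HEK293T cells were lipofected with nuclease plasmid (pcDNA3.1 backbone) plus RNA guide plasmid, with guide omitted in negative controls. After ~72 h cells were lysed in QuickExtract and % indels were derived from NGS reads, averaged over two bioreplicates and two technical replicates.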
# [2] = biological target: T2, variant nuclease T338G combination; experiment: cell_activity; PAM 5'-TTTG-3'; conditions: tags: pcDNA3.1 expression
# Procedure, shortened: as §1
binder,measurement,setting,value
AAVS1 crRNA ; AAVS1 target (ssRNA ; dsDNA) RNA: CUUGUUGUAUAUGUCCUUUUAUAGGUAUUAAACAACUGAGAAUGGUGCGUCCUAGG DNA 1: TGAGAATGGTGCGTCCTAGG DNA 2: CCTAGGACGCACCATTCTCA,indel activity,[1],5.28 fold of WT
same,indel activity,[2],5.93 fold of WT

# — patent US20240035010, “COMPOSITIONS COMPRISING A VARIANT POLYPEPTIDE AND USES THEREOF” (Arbor Biotechnologies, Inc., published 2024)
